Measured values reported in patent publication US20210261648A1 (published 2021).
Substitutions are numbered along the chain they refer to. Values belong to the binder of their own block, whether it stands above or below them.

Legend:
[1] = target: T1, FcγRIa extracellular domain with C-terminal His tag (human, UniProt P12314 16-292); assay: SPR binding amount, relative to IL6R-BF648/IL6R-L
T1 construct: also called FcgRIa; not shown: His tag attached to the C terminus

[2] = target: T2, FcγRIIb extracellular domain with C-terminal His tag (human, UniProt P31994 43-217); assay: SPR binding amount, relative to IL6R-BF648/IL6R-L
T2 construct: extracellular domain; For crystallography it was expressed with kifunensine and trimmed with Endo F1; also called FcgRIIb; FcγRIIb extracellular region; not shown: His tag attached to the C terminus
T2 sequence (looked up): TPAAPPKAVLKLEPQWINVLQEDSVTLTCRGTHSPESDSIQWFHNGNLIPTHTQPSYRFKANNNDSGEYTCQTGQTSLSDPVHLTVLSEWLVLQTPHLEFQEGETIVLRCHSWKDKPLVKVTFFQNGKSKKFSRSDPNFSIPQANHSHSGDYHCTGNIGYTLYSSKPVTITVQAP

[3] = target: T3, FcγRIIa type H extracellular domain with C-terminal His tag (human, UniProt P12318 34-217); assay: SPR binding amount, relative to IL6R-BF648/IL6R-L
T3 construct: extracellular domain; also called FcγRIIaH; FcgRIIaH; not shown: His tag attached to the C terminus
T3 sequence (looked up): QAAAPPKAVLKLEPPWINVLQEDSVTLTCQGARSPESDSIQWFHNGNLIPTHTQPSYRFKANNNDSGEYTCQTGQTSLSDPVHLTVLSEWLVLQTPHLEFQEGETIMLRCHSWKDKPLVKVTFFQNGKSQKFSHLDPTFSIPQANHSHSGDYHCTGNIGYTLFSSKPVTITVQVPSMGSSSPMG

FcγRIIb [4] = target: T4, FcγRIIb (human, UniProt P31994 43-217); assay: SPR (Biacore); parent = IL6R-B3/IL6R-L
T4 construct: extracellular domain; also called FcgRIIb; CD32B
T4 sequence (looked up): T2 sequence (looked up)

FcγRIIa type R [5] = target: T5, FcγRIIa type R (human, UniProt P12318 34-217); assay: SPR (Biacore); parent = IL6R-B3/IL6R-L
T5 chain: T3 sequence (looked up) with H134R

FcγRIIb [6] = target: T4, FcγRIIb; assay: SPR (Biacore), captured antibody, soluble FcγR
FcγRIIa type H = target: T6, FcγRIIa type H (human, UniProt P12318 34-217); assay: SPR (Biacore), captured antibody, soluble FcγR
T6 construct: extracellular domain; also called FcγRIIaH; FcgRIIaH
T6 sequence (looked up): T3 sequence (looked up)

FcγRIa = target: T7, FcγRIa (human, UniProt P12314 16-292); assay: SPR (Biacore), captured antibody, soluble FcγR
T7 construct: Whole entry named; also called FcgRIa; CD64A

FcγRIIa type R [7] = target: T5, FcγRIIa type R; assay: SPR (Biacore), captured antibody, soluble FcγR

T1 sequence (P12314 16-292): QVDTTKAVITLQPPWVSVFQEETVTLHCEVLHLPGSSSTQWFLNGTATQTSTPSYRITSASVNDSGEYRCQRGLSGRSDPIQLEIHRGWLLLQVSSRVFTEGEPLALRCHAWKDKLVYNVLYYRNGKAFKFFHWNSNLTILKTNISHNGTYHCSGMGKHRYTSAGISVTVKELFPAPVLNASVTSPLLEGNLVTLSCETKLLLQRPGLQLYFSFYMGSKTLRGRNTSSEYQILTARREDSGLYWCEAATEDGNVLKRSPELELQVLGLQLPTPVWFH
T7 sequence (P12314 16-292): as above

B1: IL6R-2B002/IL6R-L (antibody, human IgG1, kappa)
heavy: QVQLQESGPGLVKPSETLSLTCAVSGHSISHDHAWSWVRQPPGEGLEWIGFISYSGITNYNPSLQGRVTISRDNSKNTLYLQMNSLRAEDTAVYYCARSLARTTAMDYWGEGTLVTVSSASTKGPSVFPLAPSSKSTSGGTAALGCLVKDYFPEPVTVSWNSGALTSGVHTFPAVLQSSGLYSLSSVVTVPSSSLGTQTYICNVNHKPSNTKVDKKVEPKSCDKTHTCPPCPAPDLLGGDSVFLFPPKPKDTLMISRTPEVTCVVVDVSHEDPEVKFNWYVDGVEVHNAKTKPREEQYNSTYRVVSVLTVLHQDWLNGKEYKCKVSNKALPAPIEKTISKAKGQPREPQVYTLPPSRDELTKNQVSLTCLVKGFYPSDIAVEWESNGQPENNYKTTPPVLDSDGSFFLYSKLTVDKSRWQQGNVFSCSVMHEALHNHYTQESLSLSP
light: not shown
notes: Alterations introduced into IL6R-B3
relative binding activity (IL6R-BF648/IL6R-L = 100) [1]: 118
relative binding activity (IL6R-BF648/IL6R-L = 100) [2]: 116
relative binding activity (IL6R-BF648/IL6R-L = 100) [3]: 147

B2: IL6R-BP110/IL6R-L (antibody, human IgG1, kappa)
heavy: B1 heavy with D235E, H270N
light: not shown
notes: as for B1
relative binding activity (IL6R-BF648/IL6R-L = 100) [1]: 105
relative binding activity (IL6R-BF648/IL6R-L = 100) [2]: 101
relative binding activity (IL6R-BF648/IL6R-L = 100) [3]: 127

B5: IL6R-BP118/IL6R-L (antibody, human IgG1, kappa)
heavy: B1 heavy with D235E, K328S
light: not shown
notes: as for B1
relative binding activity (IL6R-BF648/IL6R-L = 100) [1]: 101
relative binding activity (IL6R-BF648/IL6R-L = 100) [2]: 104
relative binding activity (IL6R-BF648/IL6R-L = 100) [3]: 128

B6: IL6R-BP117/IL6R-L (antibody, human IgG1, kappa)
heavy: B1 heavy with D235E, K328D
light: not shown
notes: as for B1
relative binding activity (IL6R-BF648/IL6R-L = 100) [1]: 124
relative binding activity (IL6R-BF648/IL6R-L = 100) [2]: 118
relative binding activity (IL6R-BF648/IL6R-L = 100) [3]: 96

B9: IL6R-BP106/IL6R-L (antibody, human IgG1, kappa)
heavy: B1 heavy with D235E, H270D
light: not shown
notes: as for B1
relative binding activity (IL6R-BF648/IL6R-L = 100) [1]: 127
relative binding activity (IL6R-BF648/IL6R-L = 100) [2]: 116
relative binding activity (IL6R-BF648/IL6R-L = 100) [3]: 110

B10: IL6R-2B171/IL6R-L (antibody, human IgG1, kappa)
heavy: B1 heavy with D235E, V325L
light: not shown
notes: as for B1
relative binding activity (IL6R-BF648/IL6R-L = 100) [1]: 116
relative binding activity (IL6R-BF648/IL6R-L = 100) [2]: 113
relative binding activity (IL6R-BF648/IL6R-L = 100) [3]: 115

B11: IL6R-2B128/IL6R-L (antibody, human IgG1, kappa)
heavy: B1 heavy with D235E, Y298D
light: not shown
notes: as for B1
relative binding activity (IL6R-BF648/IL6R-L = 100) [1]: 95
relative binding activity (IL6R-BF648/IL6R-L = 100) [2]: 103
relative binding activity (IL6R-BF648/IL6R-L = 100) [3]: 37

B12: IL6R-BP078/IL6R-L (antibody, human IgG1, kappa)
heavy: B1 heavy with D235E, A332M
light: not shown
notes: as for B1
relative binding activity (IL6R-BF648/IL6R-L = 100) [1]: 106
relative binding activity (IL6R-BF648/IL6R-L = 100) [2]: 105
relative binding activity (IL6R-BF648/IL6R-L = 100) [3]: 89

Now from value to binder:

KD(IIb) of the parent polypeptide/KD(IIb) of the altered polypeptide (FcγRIIb [4]): 541 fold
KD(IIaR) of the parent polypeptide/KD(IIaR) of the altered polypeptide (FcγRIIa type R [5]): 5.2 fold
Kd (FcγRIIb [6]): 0.0057 µM
Kd (FcγRIIa type H): 4.6 µM
Kd (FcγRIa): 0.096 µM
Kd (FcγRIIa type R [7]): 0.21 µM
B3: IL6R-BP540/IL6R-L (antibody, human IgG1, kappa)
heavy: B1 heavy with D235E, G239D, V266I, H270E, P273G, E274P, Y298D, A332R
light: not shown
notes: Alterations in EU numbering, introduced into IL6R-B3

relative binding activity (IL6R-BF648/IL6R-L = 100) [1]: 123
relative binding activity (IL6R-BF648/IL6R-L = 100) [2]: 118
relative binding activity (IL6R-BF648/IL6R-L = 100) [3]: 114
B4: IL6R-BP107/IL6R-L (antibody, human IgG1, kappa)
heavy: B1 heavy with D235E, H270E
light: not shown
notes: as for B1

relative binding activity (IL6R-BF648/IL6R-L = 100) [1]: 110
relative binding activity (IL6R-BF648/IL6R-L = 100) [2]: 108
relative binding activity (IL6R-BF648/IL6R-L = 100) [3]: 110
B7: IL6R-BP116/IL6R-L (antibody, human IgG1, kappa)
heavy: B1 heavy with D235E, K328T
light: not shown
notes: as for B1

KD(IIb) of the parent polypeptide/KD(IIb) of the altered polypeptide (FcγRIIb [4]): 482 fold
KD(IIaR) of the parent polypeptide/KD(IIaR) of the altered polypeptide (FcγRIIa type R [5]): 4.5 fold
Kd (FcγRIIb [6]): 0.0064 µM
Kd (FcγRIIa type H): 2.8 µM
Kd (FcγRIa): 0.032 µM
Kd (FcγRIIa type R [7]): 0.25 µM
B8: IL6R-BP551/IL6R-L (antibody, human IgG1, kappa)
heavy: B1 heavy with D235E, G239D, V266I, H270E, P273G, E274D, Y298D, A332R
light: not shown
notes: as for B3
